# B1: Actin cytoskeleton-regulatory complex protein SLA1 (Saccharomyces cerevisiae), P32790 (parent)
# chain: MTVFLGIYRAVYAYEPQTPEELAIQEDDLLYLLQKSDIDDWWTVKKRVIGSDSEEPVGLVPSTYIEEAPVLKKVRAIYDYEQVQNADEELTFHENDVFDVFDDKDADWLLVKSTVSNEFGFIPGNYVEPENGSTSKQEQAPAAAEAPAATPAAAPASAAVLPTNFLPPPQHNDRARMMQSKEDQAPDEDEEGPPPAMPARPTATTETTDATAAAVRSRTRLSYSDNDNDDEEDDYYYNSNSNNVGNHEYNTEYHSWNVTEIEGRKKKKAKLSIGNNKINFIPQKGTPHEWSIDKLVSYDNEKKHMFLEFVDPYRSLELHTGNTTTCEEIMNIIGEYKGASRDPGLREVEMASKSKKRGIVQYDFMAESQDELTIKSGDKVYILDDKKSKDWWMCQLVDSGKSGLVPAQFIEPVRDKKHTESTASGIIKSIKKNFTKSPSRSRSRSRSKSNANASWKDDELQNDVVGSAAGKRSRKSSLSSHKKNSSATKDFPNPKKSRLWVDRSGTFKVDAEFIGCAKGKIHLHKANGVKIAVAADKLSNEDLAYVEKITGFSLEKFKANDGSSSRGTDSRDSERERRRRLKEQEEKERDRRLKERELYELKKARELLDEERSRLQEKELPPIKPPRPTSTTSVPNTTSVPPAESSNNNNSSNKYDWFEFFLNCGVDVSNCQRYTINFDREQLTEDMMPDINNSMLRTLGLREGDIVRVMKHLDKKFGRENIASIPTNATGNMFSQPDGSLNVATSPETSLPQQLLPQTTSPAQTAPSTSAETDDAWTVKPASKSESNLLSKKSEFTGSMQDLLDLQPLEPKKAAASTPEPNLKDLEPVKTGGTTVPAAPVSSAPVSSAPAPLDPFKTGGNNILPLSTGFVMMPMITGGDMLPMQRTGGFVVPQTTFGMQSQVTGGILPVQKTGNGLIPISNTGGAMMPQTTFGAAATVLPLQKTGGGLIPIATTGGAQFPQTSFNVQGQQQLPTGSILPVQKTANGLISANTGVSMPTVQRTGGTMIPQTSFGVSQQLTGGAMMTQPQNTGSAMMPQTSFNAVPQITGGAMMPQTSFNALPQVTGGAMMPLQRTGGALNTFNTGGAMIPQTSFSSQAQNTGGFRPQSQFGLTLQKTGGIAPLNQNQFTGGAMNTLSTGGVLQQQQPQTMNTFNTGGVMQELQMMTTFNTGGAMQQPQMMNTFNTDGIMQQPQMMNTFNTGGAMQQPQQQALQNQPTGFGFGNGPQQSRQANIFNATASNPFGF
# Experiments:
# [1] = variants of: B1; conditions: with clh_yeast CHC1, P22137
# [2] = variants of: B1; conditions: with clh_yeast CHC1, P22137; remark: listed apart in the source
# Chain of clh_yeast CHC1, P22137 (P22137 whole entry): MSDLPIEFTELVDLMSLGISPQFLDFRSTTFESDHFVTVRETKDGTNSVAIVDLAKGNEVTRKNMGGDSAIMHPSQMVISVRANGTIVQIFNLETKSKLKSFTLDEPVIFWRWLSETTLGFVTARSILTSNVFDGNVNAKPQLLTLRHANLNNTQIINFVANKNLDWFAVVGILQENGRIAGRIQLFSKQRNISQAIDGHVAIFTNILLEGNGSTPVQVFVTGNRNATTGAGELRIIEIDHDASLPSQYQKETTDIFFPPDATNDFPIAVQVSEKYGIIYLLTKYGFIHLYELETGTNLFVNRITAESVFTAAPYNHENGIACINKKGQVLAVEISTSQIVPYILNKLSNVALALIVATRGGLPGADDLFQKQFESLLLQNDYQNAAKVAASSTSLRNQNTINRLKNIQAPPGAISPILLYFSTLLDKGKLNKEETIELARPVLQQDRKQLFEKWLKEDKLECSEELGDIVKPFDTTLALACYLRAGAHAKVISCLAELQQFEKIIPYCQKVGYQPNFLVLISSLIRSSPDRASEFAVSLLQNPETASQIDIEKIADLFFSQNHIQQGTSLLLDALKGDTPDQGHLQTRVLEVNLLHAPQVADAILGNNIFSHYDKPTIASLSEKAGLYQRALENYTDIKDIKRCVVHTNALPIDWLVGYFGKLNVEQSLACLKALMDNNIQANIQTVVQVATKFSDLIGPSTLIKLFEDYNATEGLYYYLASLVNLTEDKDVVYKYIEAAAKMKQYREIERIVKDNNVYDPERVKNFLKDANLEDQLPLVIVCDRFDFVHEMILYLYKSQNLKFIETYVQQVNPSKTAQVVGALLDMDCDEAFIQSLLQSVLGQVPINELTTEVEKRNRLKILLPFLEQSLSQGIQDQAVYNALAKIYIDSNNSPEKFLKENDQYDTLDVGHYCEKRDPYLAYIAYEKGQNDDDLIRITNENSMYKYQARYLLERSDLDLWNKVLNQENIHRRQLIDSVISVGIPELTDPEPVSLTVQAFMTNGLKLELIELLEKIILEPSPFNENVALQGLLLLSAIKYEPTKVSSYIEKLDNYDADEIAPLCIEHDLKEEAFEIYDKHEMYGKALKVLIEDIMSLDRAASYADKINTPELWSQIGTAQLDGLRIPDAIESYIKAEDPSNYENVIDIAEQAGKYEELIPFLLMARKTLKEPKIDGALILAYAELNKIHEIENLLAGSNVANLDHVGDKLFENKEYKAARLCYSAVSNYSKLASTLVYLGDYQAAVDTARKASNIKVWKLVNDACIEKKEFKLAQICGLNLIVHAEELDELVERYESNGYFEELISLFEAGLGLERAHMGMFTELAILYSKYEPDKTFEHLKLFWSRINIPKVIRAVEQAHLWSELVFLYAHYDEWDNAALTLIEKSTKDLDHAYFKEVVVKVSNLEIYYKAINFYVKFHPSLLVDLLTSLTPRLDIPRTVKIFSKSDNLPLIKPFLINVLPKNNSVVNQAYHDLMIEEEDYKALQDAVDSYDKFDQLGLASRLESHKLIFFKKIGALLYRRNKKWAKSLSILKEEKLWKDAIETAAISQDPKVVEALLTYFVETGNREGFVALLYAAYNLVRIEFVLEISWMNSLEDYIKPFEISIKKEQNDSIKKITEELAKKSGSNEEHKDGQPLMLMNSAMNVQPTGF
effect of a mutation on the interaction [1],effect of a mutation on the interaction [2],Variant
decreasing interaction,disrupting interaction,L803A
decreasing interaction,disrupting interaction,L804A
decreasing interaction,disrupting interaction,D805A

# Source: IntAct's records for PubMed 20150898
